# In publication PMC8012516, “Antimicrobial peptide DP7 with potential activity against SARS coronavirus infections” (Signal Transduction and Targeted Therapy, 2021):
# Assays:
# [1] = biological target: T1, S-receptor-binding domain (RBD)-Fc of SARS-CoV-2 (SARS-CoV-2, UniProt P0DTC2); assay: SPR; settings: both partners purified
# T1 construct: also called S-RBD-Fc of SARS-CoV-2; S-RBD-Fc
# [2] = biological target: angiotensin-converting enzyme 2 (UniProt Q9BYF1 18-805); assay: SPR; Biacore; who was immobilised and the conditions are not given; settings: both partners purified
# Chain of angiotensin-converting enzyme 2 (Q9BYF1 18-805): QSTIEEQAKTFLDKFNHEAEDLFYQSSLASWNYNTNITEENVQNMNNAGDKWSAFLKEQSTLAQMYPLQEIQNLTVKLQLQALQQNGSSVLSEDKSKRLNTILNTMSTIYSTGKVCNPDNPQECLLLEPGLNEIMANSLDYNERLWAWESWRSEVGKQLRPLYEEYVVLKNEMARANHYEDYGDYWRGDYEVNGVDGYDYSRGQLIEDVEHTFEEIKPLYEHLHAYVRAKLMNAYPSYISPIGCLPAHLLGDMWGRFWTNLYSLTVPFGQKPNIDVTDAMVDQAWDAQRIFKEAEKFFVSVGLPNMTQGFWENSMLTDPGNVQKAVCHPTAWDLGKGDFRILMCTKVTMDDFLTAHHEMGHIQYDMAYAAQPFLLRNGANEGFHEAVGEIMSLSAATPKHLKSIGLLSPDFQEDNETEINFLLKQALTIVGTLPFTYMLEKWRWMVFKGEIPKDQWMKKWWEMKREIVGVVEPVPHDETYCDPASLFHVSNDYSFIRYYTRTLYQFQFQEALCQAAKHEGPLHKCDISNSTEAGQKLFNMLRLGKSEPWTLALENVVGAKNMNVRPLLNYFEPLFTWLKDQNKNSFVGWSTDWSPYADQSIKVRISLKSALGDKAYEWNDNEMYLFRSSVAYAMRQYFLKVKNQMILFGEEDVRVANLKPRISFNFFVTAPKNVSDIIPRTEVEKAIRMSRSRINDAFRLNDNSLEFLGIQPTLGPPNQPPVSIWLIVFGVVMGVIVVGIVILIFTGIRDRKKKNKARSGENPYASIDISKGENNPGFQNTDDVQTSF
binder,measurement,setting,value
VQWRIRVAVIRK (also called antimicrobial peptide DP7) [antibacterial peptide DP7],Kd,[1],51.9 nM
same,Kd,[2],227 nM
